Holding throughout (experiment): fluorescence anisotropy; FA: 50 mM Tris pH 7.0 (also given as pH 8), 200 mM NaCl, 10 mM 2-mercaptoethanol, 20 C; NMR: 20 mM Bis-Tris pH 7.0, 200 mM NaCl, 4 mM 2-mercaptoethanol; pull-down: HSB, 1 h at 30 C
Conditions in all cases: protein: recombinant; tags: 6xHis-Smt3 removed with Ulp1; label: 5' fluorescein

Data set [1] addresses T1, RBM7 RRM (Homo sapiens (cDNA from HEK293T-Rex), UniProt Q9Y580 6-94).
T1 sequence: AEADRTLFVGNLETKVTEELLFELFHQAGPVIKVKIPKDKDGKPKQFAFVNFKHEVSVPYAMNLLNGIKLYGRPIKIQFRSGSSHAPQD

Data set [2] concerns the target T2, RBM7 RRM K40A (Homo sapiens, UniProt Q9Y580 6-94, K40A).
T2 sequence: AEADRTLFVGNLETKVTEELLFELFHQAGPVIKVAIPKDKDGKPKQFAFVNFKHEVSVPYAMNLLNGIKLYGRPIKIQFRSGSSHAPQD

For data set [3], the target named is T3, RBM7 RRM K81A (Homo sapiens, UniProt Q9Y580 6-94, K81A).
T3 sequence: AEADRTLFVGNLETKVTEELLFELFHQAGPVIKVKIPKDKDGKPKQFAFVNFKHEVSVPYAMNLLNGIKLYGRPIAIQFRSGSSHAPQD

In data set [4] the target is T4, RBM7 RRM K38A (Homo sapiens, UniProt Q9Y580 6-94, K38A).
T4 sequence: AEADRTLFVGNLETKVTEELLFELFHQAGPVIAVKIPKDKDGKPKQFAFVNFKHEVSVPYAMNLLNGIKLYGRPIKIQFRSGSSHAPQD

By Kd is commonly meant a measure of binding affinity in units of concentration. Turning to AUUAUUA (ssRNA) [AU7], the Kd in data set [1] amounted to 130 ± 10 µM. As to CUCU (ssRNA) [Y4], in data set [1], the Kd is 160 ± 10 µM. Same read-out and setting: then UUUUUUU (ssRNA) [U7], with 60 ± 10 µM; and CUUCU (ssRNA) [Y5], with 90 ± 10 µM. For CUCUCUC (ssRNA) [Y7], the equilibrium dissociation constant (Kd) in data set [1] was found to be 70 ± 10 µM; in data set [2], 200 ± 20 µM; in data set [3], 100 ± 10 µM; in data set [4], 90 ± 10 µM.

As to AAAAAAA (ssRNA) [A7], in data set [1], the binding result is “no binding”.

These data come from publication PMC4417160, “RBM7 subunit of the NEXT complex binds U-rich sequences and targets 3′-end extended forms of snRNAs”.
